The source of these data is publication PMC8249405 (2021).

The koff is the rate constant with which the complex falls apart. A high value points to fast dissociation.

B1: Xcc XopR-FL (aa 1-411) (natural protein)
chain: MRLSQLFNSRHRVAPEPHGANPNKTTPLIPGASPQHPLSQAPKSTTSQGASKSHRGMLASARKSLASLRKQLPLTCMGSSPTLETVESPPAHTAAVTPGRTQQQHGTQARVDQRWQPPVPNATDHERVQRPQPQPQQTPPTRQSMSVPPKPARAQQLHGPQRPVDPRMQPPIPERMRRDEGQPPQHDKPASPPVPITPAQSSLPSPRPQPGRQPSLRRLDLQLEEITRQCSDIQKQLFMEDREATPQEQHLLKTRAALIAWRNEVRDSQLEALLVALAPMEDIRAPRTTSSGLAMVQMDAMQHNRREVLKARRKSVDRAALARNYARAQRRLESLKQGDAPKEQIRRLQRMMQGYQNMLALEQIVRSTDDQLERLGAPRLMSGIPTTAEQRRQSFEKERDAHQEAIDNGYY
B2: Arabidopsis thaliana Formin 1 AtFH1-FH1C (domain or fragment)
chain: RQGLQSQLLSSPSNSHGGQGFLKQLDALRSRSPSSSSSSVCSSPEKASHKSPVTSPKLSSRNSQSLSSSPDRDFSHSLDVSPRISNISPQILQSRVPPPPPPPPPLPLWGRRSQVTTKADTISRPPSLTPPSHPFVIPSENLPVTSSPMETPETVCASEAAEETPKPKLKALHWDKVRASSDREMVWDHLRSSSFKLDEEMIETLFVAKSLNNKPNQSQTTPRCVLPSPNQENRVLDPKKAQNIAILLRALNVTIEEVCEALLEGNADTLGTELLESLLKMAPTKEEERKLKAYNDDSPVKLGHAEKFLKAMLDIPFAFKRVDAMLYVANFESEVEYLKKSFETLEAACEELRNSRMFLKLLEAVLKTGNRMNVGTNRGDAHAFKLDTLLKLVDVKGADGKTTLLHFVVQEIIRAEGTRLSGNNTQTDDIKCRKLGLQVVSSLCSELSNVKKAAAMDSEVLSSYVSKLSQGIAKINEAIQVQSTITEESNSQRFSESMKTFLKRAEEEIIRVQAQESVALSLVKEITEYFHGNSAKEEAHPFRIFLVVRDFLGVVDRVCKEVGMINERTMVSSAHKFPVPVNPMMPQPLPGLVGRRQSSSSSSSSSTSSSDEDEHNSISLVS

Series [1] concerns the molecule itself. The series can be described thus: SPR; bivalent model, koff1.
Series [2] has as its target B1. The series can be described thus: SPR; bivalent model, koff1.

In turn, B1 returned a koff in series [1] of 0.27 s⁻¹.

B2 gave a koff in series [2] of 0.0152 s⁻¹.
